Measured values published in paper PMC4227749.

Tested on: AgrA L171A (Staphylococcus aureus SH1000)
Assay: EMSA
Settings: EMSA: 10 mM HEPES pH 7.6, 50 mM KCl, 1 mM EDTA, 2 mM DTT, 0.5% Triton X-100, 5% glycerol, 37 C; 1 uM AgrA (pre-incubated at 3 uM with 50 mM acetyl phosphate …)

## agr operon intergenic region P2-P3 probe
  binding signal (% of wild-type binding): 50
